Reference: the RNAGym collection of RNA variant scans (doi:10.1101/gr.219683.116)

B1: mRNA-splicing (parent)
chain: AGUUGCUGCUGGGAGCUCCAGCACAGUGAAAUGGACAGAAGGGCAGAGCAA

Variants of: B1
Experiment: exon inclusion enrichment index; higher = more inclusion; WT1 exon 5 minigene, HEK293

**Q.** For G5C C6A U7C G8A U10A G21A C22G, which “exon inclusion enrichment index” value is on record?
**A.** 0.156

**Q.** With G5C C6A U7C G8A U10A G21A C22A as the variant, how does the “exon inclusion enrichment index” value read?
**A.** 0.0529

**Q.** Which “exon inclusion enrichment index” value does the source give for G5C C6A U7C G8A U10A G26C here?
**A.** 0.141

**Q.** With G5C C6A U7C G8A U10A G26U as the variant, how does the “exon inclusion enrichment index” value read?
**A.** 0.091

**Q.** Which “exon inclusion enrichment index” value does the source give for G5C C6A U7C G8A U10A G26A here?
**A.** 0.156

**Q.** With G5C C6A U7C G8A U10A G15C C16A as the variant, how does the “exon inclusion enrichment index” value read?
**A.** 0.0594

**Q.** For G5C C6A U7C G8A U10A G15C C16U, which “exon inclusion enrichment index” value is on record?
**A.** 0.0687

**Q.** For G5C C6A U7C G8A U10A G15C C16G, which “exon inclusion enrichment index” value is on record?
**A.** 0.0998

**Q.** With G5C C6A U7C G8A U10A C44A A45G as the variant, how does the “exon inclusion enrichment index” value read?
**A.** 0.213

**Q.** With G5C C6A U7C G8A U10A C44A A45U as the variant, how does the “exon inclusion enrichment index” value read?
**A.** 0.339

**Q.** Which “exon inclusion enrichment index” value does the source give for G5C C6A U7C G8A U10A C44A A45C here?
**A.** 0.385

**Q.** Which “exon inclusion enrichment index” value does the source give for G5C C6A U7C G8A U10A C44G A45C here?
**A.** 0.204

**Q.** Which “exon inclusion enrichment index” value does the source give for G5C C6A U7C G8A U10A C44G A45G here?
**A.** 0.00762

**Q.** Which “exon inclusion enrichment index” value does the source give for G5C C6A U7C G8A U10A C44G A45U here?
**A.** 0.109

**Q.** For G5C C6A U7C G8A U10A G38A A39G, which “exon inclusion enrichment index” value is on record?
**A.** 0.102

**Q.** With G5C C6A U7C G8A U10A G38A A39C as the variant, how does the “exon inclusion enrichment index” value read?
**A.** 0.107

**Q.** Which “exon inclusion enrichment index” value does the source give for G5C C6A U7C G8A U10A G38A A39U here?
**A.** 0.0079

**Q.** With G5C C6A U7C G8A U10A G28U A29C as the variant, how does the “exon inclusion enrichment index” value read?
**A.** 0.0517

**Q.** For G5C C6A U7C G8A U10A G28U A29U, which “exon inclusion enrichment index” value is on record?
**A.** 0.00263

**Q.** For G5C C6A U7C G8A U10A G28U A29G, which “exon inclusion enrichment index” value is on record?
**A.** 0.0731

**Q.** For G5C C6A U7C G8A U10A G34A, which “exon inclusion enrichment index” value is on record?
**A.** 0.0333

**Q.** With G5C C6A U7C G8A U10A G34C as the variant, how does the “exon inclusion enrichment index” value read?
**A.** 0.0202

**Q.** For G5C C6A U7C G8A U10A G34U, which “exon inclusion enrichment index” value is on record?
**A.** 0.012

**Q.** With G5C C6A U7C G8A U10A C19U as the variant, how does the “exon inclusion enrichment index” value read?
**A.** 0.0124

**Q.** Which “exon inclusion enrichment index” value does the source give for G5C C6A U7C G8A U10A G12U G13U here?
**A.** 0.00142

**Q.** For G5C C6A U7C G8A U10A G12U G13A, which “exon inclusion enrichment index” value is on record?
**A.** 0.0173

**Q.** With G5C C6A U7C G8A U10A G12U G13C as the variant, how does the “exon inclusion enrichment index” value read?
**A.** 0.0217

**Q.** For G5C C6A U7C G8A U10A G26U U27G, which “exon inclusion enrichment index” value is on record?
**A.** 0.355

**Q.** Which “exon inclusion enrichment index” value does the source give for G5C C6A U7C G8A U10A G26U U27C here?
**A.** 0.613

**Q.** Which “exon inclusion enrichment index” value does the source give for G5C C6A U7C G8A U10A G26U U27A here?
**A.** 0.0285

**Q.** For G5C C6A U7C G8A U10A C44U, which “exon inclusion enrichment index” value is on record?
**A.** 0.0254

**Q.** For G5C C6A U7C G8A U10A C44G, which “exon inclusion enrichment index” value is on record?
**A.** 0.198

**Q.** For G5C C6A U7C G8A U10A C44A, which “exon inclusion enrichment index” value is on record?
**A.** 0.477

**Q.** Which “exon inclusion enrichment index” value does the source give for G5C C6A U7C G8A U10A C24A A25U here?
**A.** 0.146

**Q.** Which “exon inclusion enrichment index” value does the source give for G5C C6A U7C G8A U10A C24A A25G here?
**A.** 0.156

**Q.** With G5C C6A U7C G8A U10A C24A A25C as the variant, how does the “exon inclusion enrichment index” value read?
**A.** 0.742

**Q.** With G5C C6A U7C G8A U10A C22U A23C as the variant, how does the “exon inclusion enrichment index” value read?
**A.** 0.0379

**Q.** Which “exon inclusion enrichment index” value does the source give for G5C C6A U7C G8A U10A C22U A23U here?
**A.** 0.0622

**Q.** Which “exon inclusion enrichment index” value does the source give for G5C C6A U7C G8A U10A C22U A23G here?
**A.** 0.114

**Q.** With G5C C6A U7C G8A U10A G28A as the variant, how does the “exon inclusion enrichment index” value read?
**A.** 0.0118

**Q.** With G5C C6A U7C G8A U10A G28C as the variant, how does the “exon inclusion enrichment index” value read?
**A.** 0.0496

**Q.** For G5C C6A U7C G8A U10A G28U, which “exon inclusion enrichment index” value is on record?
**A.** 0.00934

**Q.** Which “exon inclusion enrichment index” value does the source give for G5C C6A U7C G8A U10A G13U A14G here?
**A.** 0.0515

**Q.** With G5C C6A U7C G8A U10A G13U A14C as the variant, how does the “exon inclusion enrichment index” value read?
**A.** 0.0603

**Q.** With G5C C6A U7C G8A U10A G13U A14U as the variant, how does the “exon inclusion enrichment index” value read?
**A.** 0.0352

**Q.** For G5C C6A U7C G8A U10A G33U G34A, which “exon inclusion enrichment index” value is on record?
**A.** 0.0098

**Q.** Which “exon inclusion enrichment index” value does the source give for G5C C6A U7C G8A U10A G33U G34C here?
**A.** 0.00585

**Q.** For G5C C6A U7C G8A U10A G33U G34U, which “exon inclusion enrichment index” value is on record?
**A.** 0.00723

**Q.** With G5C C6A U7C G8A U10A G34C A35C as the variant, how does the “exon inclusion enrichment index” value read?
**A.** 0.0037

**Q.** Which “exon inclusion enrichment index” value does the source give for G5C C6A U7C G8A U10A G34C A35G here?
**A.** 0.0658

**Q.** With G5C C6A U7C G8A U10A G34C A35U as the variant, how does the “exon inclusion enrichment index” value read?
**A.** 0.0152

**Q.** Which “exon inclusion enrichment index” value does the source give for G5C C6A U7C G8A U10A G11U G12U here?
**A.** 0.037

**Q.** For G5C C6A U7C G8A U10A G11U G12C, which “exon inclusion enrichment index” value is on record?
**A.** 0.543

**Q.** Which “exon inclusion enrichment index” value does the source give for G5C C6A U7C G8A U10A G11U G12A here?
**A.** 0.0375

**Q.** With G5C C6A U7C G8A U10A C22G A23C as the variant, how does the “exon inclusion enrichment index” value read?
**A.** 0.0525

**Q.** With G5C C6A U7C G8A U10A C22G A23G as the variant, how does the “exon inclusion enrichment index” value read?
**A.** 0.043

**Q.** For G5C C6A U7C G8A U10A C22G A23U, which “exon inclusion enrichment index” value is on record?
**A.** 0.0222

**Q.** With G5C C6A U7C G8A U10A C19U A20C as the variant, how does the “exon inclusion enrichment index” value read?
**A.** 0.0561

**Q.** With G5C C6A U7C G8A U10A C19U A20U as the variant, how does the “exon inclusion enrichment index” value read?
**A.** 0.0111

**Q.** For G5C C6A U7C G8A U10A C19U A20G, which “exon inclusion enrichment index” value is on record?
**A.** 0.0251

**Q.** With G5C C6A U7C G8A U10A C24U as the variant, how does the “exon inclusion enrichment index” value read?
**A.** 0.0213

**Q.** Which “exon inclusion enrichment index” value does the source give for G5C C6A U7C G8A U10A C24G here?
**A.** 0.119

**Q.** With G5C C6A U7C G8A U10A C24A as the variant, how does the “exon inclusion enrichment index” value read?
**A.** 0.105

**Q.** For G5C C6A U7C G8A U10A G21C C22A, which “exon inclusion enrichment index” value is on record?
**A.** 0.0674

**Q.** With G5C C6A U7C G8A U10A G21C C22G as the variant, how does the “exon inclusion enrichment index” value read?
**A.** 0.322

**Q.** With G5C C6A U7C G8A U10A G21C C22U as the variant, how does the “exon inclusion enrichment index” value read?
**A.** 0.105

**Q.** With G5C C6A U7C G8A U10A G15U as the variant, how does the “exon inclusion enrichment index” value read?
**A.** 0.098

**Q.** For G5C C6A U7C G8A U10A G15A, which “exon inclusion enrichment index” value is on record?
**A.** 0.0449

**Q.** Which “exon inclusion enrichment index” value does the source give for G5C C6A U7C G8A U10A G15C here?
**A.** 0.0588

**Q.** Which “exon inclusion enrichment index” value does the source give for G5C C6A U7C G8A U10A G26C U27C here?
**A.** 0.54

**Q.** Which “exon inclusion enrichment index” value does the source give for G5C C6A U7C G8A U10A G26C U27G here?
**A.** 0.537

**Q.** For G5C C6A U7C G8A U10A G26C U27A, which “exon inclusion enrichment index” value is on record?
**A.** 0.076

**Q.** With G5C C6A U7C G8A U10A C36G as the variant, how does the “exon inclusion enrichment index” value read?
**A.** 0.0563

**Q.** Which “exon inclusion enrichment index” value does the source give for G5C C6A U7C G8A U10A C36U here?
**A.** 0.0372

**Q.** For G5C C6A U7C G8A U10A C36A, which “exon inclusion enrichment index” value is on record?
**A.** 0.0935

**Q.** With G5C C6A U7C G8A U10A G28C A29C as the variant, how does the “exon inclusion enrichment index” value read?
**A.** 0.0814

**Q.** For G5C C6A U7C G8A U10A G28C A29U, which “exon inclusion enrichment index” value is on record?
**A.** 0.0485

**Q.** Which “exon inclusion enrichment index” value does the source give for G5C C6A U7C G8A U10A G28C A29G here?
**A.** 0.241

**Q.** For G5C C6A U7C G8A U10A G11A G12U, which “exon inclusion enrichment index” value is on record?
**A.** 0.0692

**Q.** With G5C C6A U7C G8A U10A G11A G12C as the variant, how does the “exon inclusion enrichment index” value read?
**A.** 0.495

**Q.** For G5C C6A U7C G8A U10A G11A G12A, which “exon inclusion enrichment index” value is on record?
**A.** 0.202

**Q.** With G5C C6A U7C G8A U10A C22A A23U as the variant, how does the “exon inclusion enrichment index” value read?
**A.** 0.0806

**Q.** With G5C C6A U7C G8A U10A C22A A23C as the variant, how does the “exon inclusion enrichment index” value read?
**A.** 0.364

**Q.** Which “exon inclusion enrichment index” value does the source give for G5C C6A U7C G8A U10A C22A A23G here?
**A.** 0.124
